Data reported in IntAct's records for PubMed 10677492.

B1: Dolichyl-diphosphooligosaccharide--protein glycosyltransferase subunit OST4 (Saccharomyces cerevisiae), Q99380 (parent)
chain: MISDEQLNSLAITFGIVMMTLIVIYHAVDSTMSPKN
partner: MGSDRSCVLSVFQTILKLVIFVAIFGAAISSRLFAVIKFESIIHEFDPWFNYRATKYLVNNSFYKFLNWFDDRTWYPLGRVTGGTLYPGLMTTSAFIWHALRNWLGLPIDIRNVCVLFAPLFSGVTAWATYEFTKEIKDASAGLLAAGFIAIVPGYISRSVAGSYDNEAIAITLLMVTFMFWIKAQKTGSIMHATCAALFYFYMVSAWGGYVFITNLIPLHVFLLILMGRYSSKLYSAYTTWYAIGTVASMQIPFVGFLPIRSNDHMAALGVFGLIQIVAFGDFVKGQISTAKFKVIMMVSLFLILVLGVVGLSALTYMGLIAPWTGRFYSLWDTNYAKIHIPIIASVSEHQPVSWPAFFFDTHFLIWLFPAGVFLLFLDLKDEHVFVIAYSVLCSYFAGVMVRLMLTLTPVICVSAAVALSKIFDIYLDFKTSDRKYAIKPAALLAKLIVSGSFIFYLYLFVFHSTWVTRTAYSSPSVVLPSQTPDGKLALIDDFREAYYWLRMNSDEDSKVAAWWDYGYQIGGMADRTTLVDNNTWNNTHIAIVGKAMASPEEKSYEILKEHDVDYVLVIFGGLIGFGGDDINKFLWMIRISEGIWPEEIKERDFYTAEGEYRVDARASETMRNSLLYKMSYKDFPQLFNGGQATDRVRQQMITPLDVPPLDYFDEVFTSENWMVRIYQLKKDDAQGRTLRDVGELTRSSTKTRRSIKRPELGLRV
B2: Dolichyl-diphosphooligosaccharide--protein glycosyltransferase subunit OST4 (Saccharomyces cerevisiae), Q99380 (parent)
chain: B1 chain
partner: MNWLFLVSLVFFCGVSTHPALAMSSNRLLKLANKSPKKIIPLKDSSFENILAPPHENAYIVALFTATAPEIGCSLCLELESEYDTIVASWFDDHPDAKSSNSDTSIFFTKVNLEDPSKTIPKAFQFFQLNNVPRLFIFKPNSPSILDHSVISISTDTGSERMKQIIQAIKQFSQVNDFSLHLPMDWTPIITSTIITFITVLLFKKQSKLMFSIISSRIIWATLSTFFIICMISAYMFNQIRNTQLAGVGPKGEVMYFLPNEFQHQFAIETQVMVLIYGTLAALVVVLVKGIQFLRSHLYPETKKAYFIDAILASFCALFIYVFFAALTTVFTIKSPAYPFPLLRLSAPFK

Variants of: B1
Conditions: with stt3_yeast STT3, P39007

Effect of a mutation on the interaction, disrupting interaction:
I24K
M18K
L21K

Variants of: B2
Conditions: with ost3_yeast OST3, P48439

Effect of a mutation on the interaction, disrupting interaction:
M19K
T20K
M18K
L21K
I24K
V23K
